According to US20260069689A1 (Regeneron, published 2026):
Substitutions are numbered along the chain they refer to.

B1: mAb15170 (antibody, V domains shown)
VH: EVQLVESGGGLVQPGGSLRLSCAATGITVSSNYMSWVRQAPGKGLEWVSLIYSGGSTFYADSVKGRFTISRHNSKNTLYLQMSSLRAEDTAVYYCARDLVDFGMDVWGQGTTVTVSS
VL: DIQLTQSPSSLSASVGDRVTITCRASQGISNYLAWYQQKPGKAPKLLIYAASTLQSGVPSRFSGSGSGTDFTLTISSLQPEDFGTYYCQQLNSDSPTFGQGTKVEIKR
B2: mAb15159 (antibody, V domains shown)
VH: B1 VH with T25S, S35T, K64R, H72D, S83N, D101V, F102Y
VL: B1 VL with N31S, G84A, Q90H, S95P, P96H, V104L
B3: mAb15157 (antibody, V domains shown)
VH: EVQLVESGGALVQPGGSLRLSCAASGFPFTIYAMTWVRQAPGKGLEWVSVITGSGDSTYYADSVKGRFTISRDNSKNTLYLQMNSLRAEDTAVYYCVKTGEGFFYYYYGMDVWGQGTTVTVSS
VL: QSVLTQPPSVSAAPGQKVTISCSGSSSNIGNSYISWYQQLPGTAPKLLIYVNNKRPSGIPDRFSGSKSGTSATLGITGLQTGDEADYYCGTWDSSLSAGVFGSGTKVTVLG
B4: mAb15163 (antibody, V domains shown)
VH: EVQLVETGGGLIQPGESLRLSCAASGFIVSTNYMNWVRQAPGKGLEWVSVIYRGGSTYYADSVKGRFTISRDNSKNTLFLQMNSLRAEDTAVYYCARGHEDFDYDTPASGAFDIWGQGTMVTVSS
VL: QSALTQPPSASGSPGQSVTISCTGTSSDVGGHNYVSWYQQHPGKAPKVMIYEVSKRPSGVPDRFSGSKSGNTASLTVSGLQAEDEADYYCSSYAGSNKFVFGTGTKVTVLG
B5: mAb15163 (antibody, V domains shown)
VH: B4 VH
VL: B4 VL
B6: mAb15156 (antibody, V domains shown)
VH: QLQLQESGPGLVKSSETLSLTCTVSASITGSTYYWGWIRQPPGKGLEWIGSIYYSGTTYYKASLKSRVTISVDTSKNQFSLKLTSVTVADTAVYYCVSHLLGNYHKYGMDVWGQGTTVTVSS
VL: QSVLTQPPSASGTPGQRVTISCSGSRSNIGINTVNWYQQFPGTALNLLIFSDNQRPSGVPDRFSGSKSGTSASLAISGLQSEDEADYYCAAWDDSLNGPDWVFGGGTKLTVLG
B7: mAb15161 (antibody, V domains shown)
VH: EVQLVESGGGLVQPGGSLRLSCAASGFTFSSYEMNWVRQAPGKGLEWVSYISSSGSILYYADSVKGRFTASRDNAKNSLYLQMNSLRAEDTGVYYCARREYQLLRPFEFWGQGTLVTVSS
VL: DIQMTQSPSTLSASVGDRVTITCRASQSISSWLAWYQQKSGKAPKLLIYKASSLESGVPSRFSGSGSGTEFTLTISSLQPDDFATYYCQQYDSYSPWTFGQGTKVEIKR
B8: mAb15150 (antibody, V domains shown)
VH: EVQLVETGGGLIQPGGSLRLSCAAPGFIVSSNYMSWVRQAPGKGLEWVSLLYPGGSTYYADSVKGRFTISRDNSKNTLYLQMNSLRADDTAVYYCARVLPIVEDHFDYWGQGTLVTVSS
VL: DIQLTQSPSFLSASVGDRVTITCRASQGMSSYLAWYQKKPGKAPKLLIYGATILQSGVPSRFSGSGSGTEFTLTISSLQPEDFATYYCQQLNSDPLYMYTFGQGTKLEIKR
B9: mAb15158 (antibody, V domains shown)
VH: EVQLVESGGGLVQPGGSLRLSCAASGFSFSSNWMSWVRQAPGKGLEWVGNINQDGSEKYYVDSVEGRFTISRDNAKKSLYLQMNSLRAEDTAVYYCARDLGVLWFGDFVDWGQGALVTVSS
VL: DIQMTQSPSSLSASVGDRVTITCRASQAISNSLAWYQQKPGKAPKLLLYAASTLESGVPSRFSGSGSGTDYTLTISSLQPEDFATYYCLQYYGSPRTFGQGTKVEIKR
B10: mAb15160 (antibody, V domains shown)
VH: EVQLVESGGGLVQPGGSLRLSCSASGFTFSRYAMYWVRQAPGKGLEYVSAISSDGGSTYDADSVKGRFTISRANSKNTLYLQMSSLRAEDTAVYYCVKGLRELLYYYYGMDVWGQGTTVTVSS
VL: DIQMTQSPSSLSASVGDRVTITCRAGQSISSFLNWYQQKPGKAPKLLIYAASSLQSGVPSRFSGSGSGTDFTLTISSLQPEDFATYYCQQSYITPFTFGPGTKVDIKR
B11: mAb15162 (antibody, V domains shown)
VH: EVQLVETGGGLIQPGGSLRLSCAASEFIVSRNYMSWVRQAPGKGLEWVSLIYSGGSTYYADSVKGRFTISRDNSKNILYLQMNSLRAEDTAVYYCARDRGGISDYWGQGTLVTVSS
VL: DIQMTQSPSSLSASVGDRVTITCQASQDINKYLNWFQQKPGKAPKLLIYDASNLETGVPSRFSGSGSGTDFTFTISSLQPEDIATYYCQQYDNLPRTFGQGTKLEIKR
B12: mAb15162 (antibody, V domains shown)
VH: B11 VH
VL: B11 VL
B13: mAb15164 (antibody, V domains shown)
VH: EVQLVESGGGLVQPGGSLRLSCAASGFAVSSNYMTWVRQAPGKGLEWVATIYSGDSTYYADSVKGRFTISRHNSKNTLSLQMNSLRADDTAIYYCARLSGVLSGTYNGAFDIWGQGTMVTVSS
VL: QSALTQPASVSGSPGQSITISCTGTSSDFGNYNIVSWYQQHPGQAPKVMIYEGNKRPSGVSNRFSGSKSGHTASLTISGLQAEDEADYYCSSYAGSSTWVFGGGTKLTVLG
B14: mAb15166 (antibody, V domains shown)
VH: EVQLVESGGGLVQPGGSLRLSCAASGFTVTSNYMSWVRQAPGKGLEWVSAIYSGESTYYADSVKGRFTISRDSSKNTLYLQMNSLRVEDTAVYYCASIHDYSNYVGGFDPWGQGTLVTVSS
VL: B13 VL with T25P, N31S, I34L, Q44K, V48L, N54T, H71N
B15: mAb15164 (antibody, V domains shown)
VH: B13 VH
VL: B13 VL
B16: mAb15165 (antibody, V domains shown)
VH: EVQLVESGGGLVQPGGSLRLSCAASGFTVSSNYMSWVRQAPGKGLEWVSAIYSGDSTYYADSVKGRFTISKDNSKNTLYLQMNSLRGEDTAVYYCARLGGALQAYDGAFDYWGQGTLATVSS
VL: B13 VL with N31S, I34L, Q44K, V48L, N62I, H71N
B17: mAb15151 (antibody, V domains shown)
VH: QVQLVESGGGVVQPGRSLRLSCAASGFVFNSYGMHWVRQAPGKGLEWVAVLWYEGSKNYYADSVKGRFTISRDNSKNTLYLQMNSLRAEDTAVYYCARHGSGSFFGYYLDYWGQGTLVTVSS
VL: DIQMTQSPSSLSASVGDRVTITCRASHNINDFLNWYQQKPGKAPRLLIYAASSLQSGVPSRFSGSGSGTDFTLTISSLQPEDFATYYCQESYTTPPTFGQGTKLEIKR

Key:
[1] = target: T1, SARS-COV-2 RBD-MMH (SARS-COV-2 RBD extracellular domain with C-terminal myc-myc-hexahistidine tag) (SARS-CoV-2); assay: SPR 37C, mAb captured, pH 7.4 vs pH 6.0
[2] = target: T1, SARS-COV-2 RBD-MMH (SARS-COV-2 RBD …)
[3] = target: SARS-CoV-2 RBD.mmh (Spike amino acids Arg319-Phe541 with C-terminal myc-myc-6-Histidine tag) (SARS-CoV-2, UniProt P0DTC2 319-541)
SARS-COV-2 RBD-MMH [4] = target: SARS-COV-2 RBD-MMH (SARS-CoV-2); assay: SPR 37C, run with dissociation at pH 5.0
SARS-COV-2 RBD-MMH [5] = target: SARS-COV-2 RBD-MMH (SARS-CoV-2); assay: SPR 37C
SARS-COV-2 RBD-MMH [6] = target: SARS-COV-2 RBD-MMH (SARS-CoV-2); assay: SPR 37C, run with dissociation at pH 7.4

Row | Binder | t½ Ratio of pH 7.4 to pH 6.0 [1] | koff [2] [s⁻¹] | t½ at pH 6.0 [2] [min] | t½ at pH 7.4 [2] [min] | IC50 [3] [nM] | RBD.mmh Bound at pH 7.4 (RU) (SARS-COV-2 RBD-MMH [4]) | koff (SARS-COV-2 RBD-MMH [4]) [s⁻¹] | t½ (SARS-COV-2 RBD-MMH [4]) [min] | t½ Ratio of pH 7.4 to pH 5.0 (SARS-COV-2 RBD-MMH [5]) | RBD.mmh Bound at pH 7.4 (RU) (SARS-COV-2 RBD-MMH [6]) | koff (SARS-COV-2 RBD-MMH [6]) [s⁻¹]
1 | B1 | 0.7 | 8e-05 | 144 | 108 | 0.102 | – | – | – | – | – | –
2 | B2 | – | – | – | – | – | 45.5 | 0.000429 | 27 | 1.9 | 31.9 | 0.000231
3 | B3 | – | – | – | – | – | 108 | 0.00702 | 1.6 | 1.7 | 106 | 0.00405
4 | B4 | 2.1 | 0.00104 | 11.1 | 23.4 | 0.217 | – | – | – | – | – | –
5 | B5 | – | – | – | – | – | 83.2 | 0.00377 | 3.1 | 7.6 | 81.9 | 0.000494
6 | B6 | – | – | – | – | – | 104 | 0.0158 | 0.7 | 2.3 | 92.6 | 0.00673
7 | B7 | – | – | – | – | – | 51.4 | 0.00098 | 11.8 | 0.9 | 39.8 | 0.00113
8 | B8 | 0.3 | 3.81e-05 | 304 | 103 | 0.254 | – | – | – | – | – | –
9 | B9 | – | – | – | – | – | 122 | 9.7e-05 | 119 | 0.3 | 111 | 0.00031
10 | B10 | – | – | – | – | – | 61.3 | 0.00228 | 5.1 | 1 | 58.2 | 0.00218
11 | B11 | 1.2 | 0.00354 | 3.3 | 3.9 | 0.756 | – | – | – | – | – | –
12 | B12 | – | – | – | – | – | 131 | 0.0054 | 2.1 | 1.8 | 116 | 0.003
13 | B13 | 0.9 | 0.0021 | 5.5 | 5.1 | 0.245 | – | – | – | – | – | –
14 | B14 | 1 | 0.0301 | 0.4 | 0.4 | 0.475 | – | – | – | – | – | –
15 | B15 | – | – | – | – | – | 159 | 0.002 | 5.8 | 0.9 | 145 | 0.00226
16 | B16 | 0.8 | 0.00128 | 9.1 | 7.1 | 0.189 | – | – | – | – | – | –
17 | B17 | 0.7 | 0.00454 | 2.5 | 1.7 | 0.641 | – | – | – | – | – | –
